Changes are numbered by the printed parent chain. Values belong to the binder of their own block, whether it stands above or below them.
Molecular target: T1, human CLDN6 (Claudin 6) (human, UniProt P56747 1-220)
T1 construct: whole, on cells; Target presented on NUGC-3 cells that express CLDN6; also called hCLDN6
T1 sequence (looked up): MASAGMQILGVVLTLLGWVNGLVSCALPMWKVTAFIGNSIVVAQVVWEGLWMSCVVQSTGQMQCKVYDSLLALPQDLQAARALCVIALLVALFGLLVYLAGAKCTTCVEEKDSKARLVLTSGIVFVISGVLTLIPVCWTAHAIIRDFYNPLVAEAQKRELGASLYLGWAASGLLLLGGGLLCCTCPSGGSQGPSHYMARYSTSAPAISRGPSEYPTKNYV
Assay: flow cytometry on NUGC-3 cells expressing CLDN6, antibody 1 ng/mL to 25 µg/mL, PE anti-human IgG detection, gMFI
Description: The cells of human gastric cancer cell line NUGC-3 (JCRB cell bank) expressing CLDN6 were suspended with PBS (Wako, #045-29795) containing 5% FBS so as to have a concentration of 1×10⁶ cells/mL. The suspension was seeded (added) in the wells of a 96-well V-bottom microplate at a rate of 100 μL/well. After centrifugation, the supernatant was removed. AbM: antibody comprising a heavy chain, aCLDN6-VH—CH₁—CH₂—CH₃ and a light chain, aCLDN6-VL-CL, disclosed in International Publication No. WO2022/058298. Ab0, Ab1 and Ab2 were suspended with 5% FBS-containing PBS such that the concentrations fall in the range of 1 ng/mL to 25 μg/mL (12 dilution series were prepared by serial dilution at a 2.5-fold dilution rate from 25 μg/mL to 1 ng/mL). The suspensions were added at a rate of 100 μL/well and allowed to stand still at 4° C. for one hour. […] A histogram of PE (phycoerythrin) fluorescence intensity of viable cell fractions was prepared and geometric mean fluorescence intensity (gMFI) was calculated. gMFI values were plotted to make a graph by GraphPad Prism (company: GraphPad Software). […]

binding result: binds
B1: humanized anti-CLDN6 antibody Ab1 (antibody, human IgG1, kappa, V domains shown)
VH: QVQLVESGGGVVQPGGSLRLSCKASGYSFTGYTMNWVRQAPGKGLEWVGLINPYNGGTIYNQKFKGRFTLSVDKSKSTAYLQMNSLRAEDTAVYYCARDYGFVLDYWGRGTLVTVSS
VL: DIQLTQSPSSLSASVGDRVTITCSASSSVSYLHWFQQKPGKAPKLLVYSTSNLPSGVPSRFSGSGSGTDYTLTISSLQPEDFATYYCQQRSIYPPWTFGQGTKLEIKR
notes: Humanized from mouse anti-CLDN6 antibody GT512muMAB 64A or 61D (WO 2011/057788), expressed in ExpiCHO-S cells; Tested as the naked antibody

binding result: binds
B2: humanized anti-CLDN6 antibody Ab2 (antibody, human IgG1, kappa, V domains shown)
VH: B1 VH with F102Y
VL: B1 VL
notes: Tested as the naked antibody
